This note sets out measurements from the DeepSol protein solubility set.

This series is described as follows: soluble on expression in E. coli; label from the status in PepcDB or PDB records.
As for “MKNSFQTLKTLTTKSGTYGYYDLQELERKGVAEVSRLPFSIRVMLESLLRNEDGYQVTREDIEALARWRPDPGEINVPLKLARVILQDFTGVPAVVDLAAMRDAIKAKGGDPKRINPVVPADLVIDHSVQVDAFGTAYAFFYNVEKEYERNRERYLLLKWAQNALENFRVVPPGTGIVHQVNIEYLTKVVMTGKRDGLTLAFPDSLVGTDSHTTMVNGLGVLGWGVGGIEAEAVMLGQPYYMLAPRVVGFKLYGELPEGATATDLVLTVTEMLRKHGVVGKFVEFYGPGVAKLSTPDRATIANMAPEYGATMGFFPVDEETLNYLRQTGRPEELVELVEAYTKAVGLFRTPEAEEKVQYSEYLELDLSAVEPSLAGPKRPQDRVPLKEVKKSFLAHLTKPVKERGFGLSEDQLQRKVLVKRRDEEFELTHGSVVIAAITSCTNTSNPSVMLGAGLLAKKAVEAGLDRKPWVKTSLAPGSKVVTDYLEMSGLMPFLEALGFHLVGYGCTTCIGNSGPLPEDIAKAVEEGNLVVAAVLSGNRNFEGRINPHVKANYLASPMLVVAYALAGRMDIDFTTEPLGFDPNGKPIYLKDIWPSMEEIREAIRKTLDPELFKKEYSKVFEGDERWQALPAPTGELYQWDPESTYIQNPPFFEDLGERKVEDIRGARVLLVLGDSVTTDHISPAGAIPVKSPAGQYLISKGVKPEDFNSYGSRRGNHEVMMRGTFANIRIKNLMLDGIEGGYAKKLPEGDVDFVYNVAMRYKAEGTPLLVIAGKEYGTGSSRDWAAKGTYLLGIRAVLAESFERIHRSNLVGMGVLPLEFLPGENRETLGLTGYEVYDILGLEDLKPRKLVDIVARREDGSEVRFQAIARLDTPVEVDYYKNGGILQTVLLNMLKEAKATE”, the “soluble on expression in E. coli” value is on record as “soluble”.
Consider “MKPIIVKKGDIRRLLKESGEIDGNDGRISVAAHILYQFGDRIVFVKAYENEDIDLKIKNRKNDYRYIKVIASQNGEFHIMDLPIGDRRIGSETLYGLIMASETFGTRLRNEILNMISFEMKRRNSIWILVDKDSHAYYPFTTHSITEIILHDVEYRFERGLIDRNLEIRVPVQFIYNYWQRYLKAKNRTPGEVWASMILQ”, for which the “soluble on expression in E. coli” value is “not soluble”.
Take “MKPKDFCTAENWAENLSALGYLAGWRFVRMLPLPIARRVFDLGADLASKSGKGMGQLRANLARVVGAENVTQALVKQATRSYARYWLEAFRLPAIARDPELLARLRKGTVGLDLLDESLAAGKGVVLTLPHSGNWDMAGAFLISHHGQFTTVAERVKPERLFEAFVEFRESLGFEVLPLTGGERPPFEKLKERLTSGGIVCLLGERDLRHSGVETTFFGEKTSMPAGPAQLAIETGAALHVVHPWFDDDGWGLSVSDAVTVDNLSDTVQRIAHLFMANITAHPADWHMLQPLWFGDLDPERLKRSREQTNVHKPVALQEDN”: the “soluble on expression in E. coli” value is listed as “not soluble”.
With “MKPKETVCFNIKYSWHAISRMYNERASKYGTTAAVGFILLNIDVEKGTAATHIGPALGMEATSLSRVFNTMEQDGLIERRNDSSDKRKVTIFLTALGKDKRQIAKDFVLDFNNKVREQVSESKLNTFFEVLHEIQSIIDNKNTSLT” the entry was “soluble”; with “MKPKTLSPILTAKGVRLAIAVGRFNERVTKLLLEGALEAYARLGGDPAEVLVAWVPGSFELPLVAKRLAQRPDVDAVVALGAVIRGETPHFEYVAGQAASGLMQAMLQTEKPIVFGVLTTNTPEEAQERAGGKAGNKGAEAVFTAIEMVRLLEAISR”, “soluble”.
Take “MKPLSGLKVLDLSRVLAGPLCTMILADLGAEVVKVEPPWGDETRGWGPPFVEGESAYFLAVNRGKRSVALDLKRPEGQEAVRRLAQKADVLVENFKTGDLRRFGLDYESLKPLNPRLIYLSITGFGHTGPRAKEPGYDAALQGYTGIMSVTGEPEGPPMKVGVAWIDVMTGMMGALAVLAALWERERSGLGQHIDLSLFDVGLFALANLGESFLLTGKPPKRLGNAHAQIVPYGAFPAEDGWLVLAVGNDEQFARLCQVVGLPDLARRFPTNALRVEHREEVVEALSRALKARSRAHWLERFKEAGVPAAPVNDLKEAFQDPQARARGAVWTLPHPLLGALPTLANPLRFLSRTPAGPGLPPPLLGEHTREVLLEAGYTPEAVADLVQRGIAKEAPPASQRRPDRGA”: the “soluble on expression in E. coli” value was “soluble”.
